Measured values: patent publication US7265267 (CROPDESIGN N V, dated 2007)

B1: GAL4 activation domain-LDV39 fusion (pGADLDV39) (other, not shown: large carriers)
chain: RRDSPPVEEQCQIEEEDSSVSCCSTSEEKSKRRIEFVDLEENNGDDRETETSWIYDDLNKSEESMNMDSSSVAVEDVESRRRLRKSLHETVKEAELEDFFQVAEKDLRNKLLECSMKYNFDFEKDEPLGGGRYEWVKLNP
notes: FL39 = ICK2 = CKI2
B2: GAL4 activation domain alone (pGAD424) (other, UniProt P04386 768-881, looked up)
chain: ANFNQSGNIADSSLSFTFTNSSNGPNLITTQTNSQALSQPIASSNVHDNFMNNEITASKIDDGNNSKPLSPGWTDQTAYNAFGITTGMFNTTTMDDVYNYLFDDEDTPPNPKKE
notes: Negative control prey in the two-hybrid retransformation
B3: GAL4 activation domain-LDV66 fusion (pGADLDV66) (other, not shown: large carriers)
chain: VNSVPVAQSSNEDECFDNFVSVQVSCGENSLGFESRHSTRESTPCNFVEDMEIMVTPGSSTRSMCRATKEYTREQDNVIPTTSEMEEFFAYAEQQQQRLFMEKYNFDIVNDIPLSGRYEWVQVKP
notes: FL66 = ICK3
B4: Purified recombinant FL66 protein (E. coli, FL66pET21d), starting at methionine 11 (other)
chain: MEVSKATAPSPGVRTRAAKTLALKRLNSSAADSALPNDSSCYLQLRSRRLEKPSSLIEPKQPPRVHRSGIKESGSRSRVDSVNSVPVAQSSNEDECFDNFVSVQVSCGENSLGFESRHSTRESTPCNFVEDMEIMVTPGSSTRSMCRATKEYTREQDNVIPTTSEMEEFFAYAEQQQQRLFMEKYNFDIVNDIPLSGRYEWVQVKP
notes: also called FL66-Sepharose
B5: GAL4 activation domain-FL66 fusion (pGADFL66), FL66 starting at methionine 11 (other, not shown: large carriers)
chain: MEVSKATAPSPGVRTRAAKTLALKRLNSSAADSALPNDSSCYLQLRSRRLEKPSSLIEPKQPPRVHRSGIKESGSRSRVDSVNSVPVAQSSNEDECFDNFVSVQVSCGENSLGFESRHSTRESTPCNFVEDMEIMVTPGSSTRSMCRATKEYTREQDNVIPTTSEMEEFFAYAEQQQQRLFMEKYNFDIVNDIPLSGRYEWVQVKP
notes: the FL66 clone may not be full length; also called ICK3
B6: GAL4 activation domain-FL39 fusion (pGADFL39) (other, not shown: large carriers)
chain: MAAVRRRERDVVEENGVTTTTVKRRKMEEEVDLVESRIILSPCVQATNRGGIVARNSAGASETSVVIVRRRDSPPVEEQCQIEEEDSSVSCCSTSEEKSKRRIEFVDLEENNGDDRETETSWIYDDLNKSEESMNMDSSSVAVEDVESRRRLRKSLHETVKEAELEDFFQVAEKDLRNKLLECSMKYNFDFEKDEPLGGGRYEWVKLNP
notes: also called ICK2; CKI2
B7: GAL4 activation domain-LDV159 fusion (pGADLDV159) (other, Arabidopsis thaliana, UniProt Q67Y93 1-191, looked up, not shown: large carriers)
chain: MVRKYRKAKGIVEAGVSSTYMQLRSRRIVYVRSEKSSSVSVVGDNGVSSSCSGSNEYKKKELIHLEEEDKDGDTETSTYRRGTKRKLFENLREEEKEELSKSMENYSSEFESAVKESLDCCCSGRKTMEETVTAEEEEKAKLMTEMPTESEIEDFFVEAEKQLKEKFKKKYNFDFEKEKPLEGRYEWVKLE
notes: also called ICK1

How the values were obtained:
[1] = molecular target: GAL4 DNA-binding domain-CDC2bAt fusion (pGBTCDC2B) (Arabidopsis thaliana, UniProt P04386 1-147; P25859 1-309); test: yeast two-hybrid, growth without histidine
Description: (§1) The pGBTCDC2B vector encoding a fusion protein between the C-terminus of the GAL4 DNA-binding domain and CDC2bAt was constructed by cloning the full length coding region of CDC2bAt into the pGBT9 vector. pGBTCDC2B was transformed with pGADLDV66/pGADLDV39/pGADLDV159 in the HF7c yeast and cotransformants were plated on medium with or without histidine. As control, pGBTCDC2A was transformed with pGADLDV66/pGADLDV39/pGADLDV159. In contrast to the transformants containing the pGBTCDC2A vector were cotransformants containing the pGBTCDC2B vector unable to grow in the absence of histidine.

[2] = molecular target: T1, GAL4 DNA binding domain alone (pGBT9) (UniProt P04386 1-147); test: yeast two-hybrid control, growth without histidine
T1 construct: Negative control bait in the two-hybrid retransformation
From the text: (§2) The LDV159 clone was identical to ICK1 (GenBank accession number U94772 as published by Wang in Nature 386 (1997), 451–452). The two other clones were novel and encoded proteins only distantly related to ICK1 (Table 1). The LDV39 gene was 622 bp long, consisting of 423 bp coding region and 199 bp 3' UTR (excluding the poly-A tail). The LDV66 gene was 611 bp long, consisting of 379 bp coding region and 232 bp 3' UTR (excluding the poly-A tail). The specificity of the interaction between LDV39, LDV66, and LDV159 was verified by the retransformation of yeast with pGBTCDC2A and pGADLDV39/pGADLDV66/pGADLDV159. As controls, pGBTCDC2A was cotransformed with a vector containing only the GAL4 activation domain (pGAD424); and the pGADLDV39/pGADLDV66/pGADLDV159 vectors were cotransformed with a plasmid containing only the GAL4 DNA binding domain (pGBT9). Transformants were plated on medium with or without histidine. Only transformants containing both pGBTCDC2A and pGADLDV39, pGADLDV66, ot pGADLDV159 were able to grow in the absence of histidine.

[3] = molecular target: T2, GAL4 DNA-binding domain-CDC2aAt fusion (pGBTCDC2A bait) (Arabidopsis thaliana, UniProt P04386 1-147; P24100 1-294); test: yeast two-hybrid control, growth without histidine
T2 construct: Yeast two-hybrid bait; whole CDC2aAt coding region amplified from cDNA and cloned in the EcoRI site of pGBT9
From the text: as §2

[4] = molecular target: T3, CDC2bAt protein in protein extract of A. thaliana Col-O cell suspension culture (Arabidopsis thaliana, UniProt P25859 1-309); test: pull-down from cell extract on FL66-Sepharose, Western blot
T3 construct: Endogenous protein in a crude extract
T3 sequence (looked up): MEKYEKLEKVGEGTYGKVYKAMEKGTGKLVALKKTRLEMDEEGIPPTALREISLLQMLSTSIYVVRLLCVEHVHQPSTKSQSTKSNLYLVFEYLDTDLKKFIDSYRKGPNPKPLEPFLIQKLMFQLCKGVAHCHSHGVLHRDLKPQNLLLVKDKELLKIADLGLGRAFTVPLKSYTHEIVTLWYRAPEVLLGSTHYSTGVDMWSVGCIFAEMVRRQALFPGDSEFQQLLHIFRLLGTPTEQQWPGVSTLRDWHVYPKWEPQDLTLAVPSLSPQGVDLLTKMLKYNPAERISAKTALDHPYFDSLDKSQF
Description: The *Arabidopsis thaliana* CKI FL66 Associates Exclusively with CDC2aAt In Vitro Purified recombinant FL66 protein (prepared as described as in previous Example 6 was coupled to CNBr-activated Sepharose 4B (Pharmacia) at a concentration of 5 mg/ml of gel according to the manufacturer's instructions. Protein extracts were prepared from a 2-day-old cell suspension culture of *A. thaliana* Col-O in homogenisation buffer (HB) containing 50 mM Tris-HCl (pH 7.2), 60 mM β-glycerophosphate, 15 mM nitrophenyl phosphate, 15 mM EGTA, 15 mM MgCl_2, 2 mM dithiothreitol, 0.1 mM vanadate, 50 mM NaF, 20 µg/ml leupeptin, 20 µg/ml aprotinin, 20 µg/ml soybean trypsin inhibitor (SBTI), 100 µM benzamidine, 1 mM phenylmethylsulfonylfluoride, and 0.1% Triton X-100. Two-hundred µg protein extract in a total volume of 100 µl HB was loaded on 50 µl 50% (v/v) FL66-Sepharose or control Sepharose beads, and incubated on a rotating wheel for 2 h at 4° C. The unbound proteins were collected for later analysis. The beads-bound fractions were washed 3 times with HB. Beads were resuspended in 30 µl SDS-loading buffer and boiled. The supernatants (beads bound fractions) and 10 µl of the unbound fractions were separated on a 12.5% SDS-PAGE gel and electroblotted on nitrocellulose membrane (Hybond-C^+; Amersham). […]

[5] = molecular target: T2, GAL4 DNA-binding domain-CDC2aAt fusion …; test: yeast two-hybrid, growth without histidine
Description: as §1

Binder	binding result [1]	further results
B1	no binding	binding result [2]: no binding
B2	–	binding result [3]: no binding
B3	no binding	binding result [2]: no binding
B4	–	binding result [4]: no binding
B5	no binding	–
B6	no binding	binding result [5]: binds
B7	no binding	–
